The target of the assay is T1, recombinant RABL3 (human, UniProt Q5HYI8 1-236).
T1 sequence (looked up): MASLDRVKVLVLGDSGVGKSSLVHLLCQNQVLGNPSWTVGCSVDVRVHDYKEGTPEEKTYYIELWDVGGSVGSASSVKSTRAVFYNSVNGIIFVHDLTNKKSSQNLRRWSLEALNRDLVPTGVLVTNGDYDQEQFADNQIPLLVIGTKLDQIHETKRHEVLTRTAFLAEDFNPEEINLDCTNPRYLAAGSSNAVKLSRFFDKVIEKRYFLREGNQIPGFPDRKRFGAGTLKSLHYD
Kind of assay: pull-down.

This note sets out measurements from paper doi:10.1101/2022.03.14.484356 (bioRxiv, 2022).

B1: recombinant GST-RAB11A (natural protein, human, UniProt P62491 1-216, looked up)
chain: MGTRDDEYDYLFKVVLIGDSGVGKSNLLSRFTRNEFNLESKSTIGVEFATRSIQVDGKTIKAQIWDTAGQERYRAITSAYYRGAVGALLVYDIAKHLTYENVERWLKELRDHADSNIVIMLVGNKSDLRHLRAVPTDEARAFAEKNGLSFIETSALDSTNVEAAFQTILTEIYRIVSQKQMSDRRENDMSPSNNVVPIHVPPTTENKPKVQCCQNI
For the molecule B1, the binding result is “binds”.
